# Assay results: IntAct's records for PubMed 21816274
# B1: Gem-associated protein 2 (Homo sapiens), O14893 (parent)
# chain: MRRAELAGLKTMAWVPAESAVEELMPRLLPVEPCDLTEGFDPSVPPRTPQEYLRRVQIEAAQCPDVVVAQIDPKKLKRKQSVNISLSGCQPAPEGYSPTLQWQQQQVAQFSTVRQNVNKHRSHWKSQQLDSNVTMPKSEDEEGWKKFCLGEKLCADGAVGPATNESPGIDYVQIGFPPLLSIVSRMNQATVTSVLEYLSNWFGERDFTPELGRWLYALLACLEKPLLPEAHSLIRQLARRCSEVRLLVDSKDDERVPALNLLICLVSRYFDQRDLADEPS
# Variants of: B1
# Details: with smn_human SMN1, Q16637
# Sequence of smn_human SMN1, Q16637 (Q16637 whole entry): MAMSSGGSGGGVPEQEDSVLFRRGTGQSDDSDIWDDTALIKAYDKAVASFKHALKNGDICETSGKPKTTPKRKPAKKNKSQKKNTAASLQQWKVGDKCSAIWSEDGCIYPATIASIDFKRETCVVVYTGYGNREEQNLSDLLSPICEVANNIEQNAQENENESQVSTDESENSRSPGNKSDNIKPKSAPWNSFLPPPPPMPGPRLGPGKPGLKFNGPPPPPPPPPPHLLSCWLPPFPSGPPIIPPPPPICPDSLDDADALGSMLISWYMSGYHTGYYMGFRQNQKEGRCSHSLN
row,Variant,effect of a mutation on the interaction
1,MRRAELAGLKTMAWVPAESAVEELMPRLLPVEPCDLTEGFDPSVPPRTPQEYLRRVQIEAAQCPDVVVAQIDPKKLKRKQSVNISLSGCQPAPEGYSPTLQWQQQQVAQFSTVRQNVNKHRSHWKSQQLDSNVTMPKSEDEEGWKKFCLGEKLCADGAVGPATNESPGIDYVQIGFPPLLSIVSRMNQATVTSVLEYLSNWFGERDFTPELGDWLYALLACLEKPLLPEAHSLIRQLARRCSEVRLLVDSKDDERVPALNLLICLVSRYFDQRDLADEPS [R213D],disrupting interaction
